Test results published in patent publication US20170088632A1 (OMEROS, published 2017).
Several values for one entry are separate records, joined by “and”; a condition that tells them apart may be missing. Identical values can stand only once.

Tests used:
human MASP-2 [1] = target: T1, human MASP-2 (human, UniProt O00187 16-686); experiment: cell-based or functional assay
human MASP-2 [2] = target: T1, human MASP-2; experiment: selectivity for human MASP-2 over C1s (method not detailed; see FIG. 16)
[3] = target: T2, African Green monkey MASP-2 (in African Green monkey serum) (African Green monkey); experiment: cell-based or functional assay
[4] = target: T3, rat MASP-2 (in rat serum) (rat, UniProt Q9JJS8 20-685); experiment: cell-based or functional assay
T3 sequence (Q9JJS8 other isoform, or with tags, fused parts or gaps limits assumed): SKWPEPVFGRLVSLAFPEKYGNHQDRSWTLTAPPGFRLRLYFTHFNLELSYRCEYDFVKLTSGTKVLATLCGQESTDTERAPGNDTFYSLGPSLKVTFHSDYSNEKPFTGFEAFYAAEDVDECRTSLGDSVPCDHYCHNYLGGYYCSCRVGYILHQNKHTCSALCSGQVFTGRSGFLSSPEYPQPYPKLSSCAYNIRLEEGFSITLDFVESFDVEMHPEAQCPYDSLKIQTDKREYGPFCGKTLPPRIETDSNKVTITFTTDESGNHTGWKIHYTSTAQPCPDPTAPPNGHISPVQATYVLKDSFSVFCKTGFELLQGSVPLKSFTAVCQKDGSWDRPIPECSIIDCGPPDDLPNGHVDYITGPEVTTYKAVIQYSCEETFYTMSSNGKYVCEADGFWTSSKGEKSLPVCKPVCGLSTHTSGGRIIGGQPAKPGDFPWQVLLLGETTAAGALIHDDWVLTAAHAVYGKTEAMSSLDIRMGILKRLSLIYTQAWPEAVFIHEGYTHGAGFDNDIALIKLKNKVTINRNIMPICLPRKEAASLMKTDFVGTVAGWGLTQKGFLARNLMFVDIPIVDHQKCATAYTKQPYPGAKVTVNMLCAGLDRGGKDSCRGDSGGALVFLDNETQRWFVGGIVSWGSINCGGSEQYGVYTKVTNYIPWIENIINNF

[5] = target: T4, human MASP-2A (catalytically inactive human MASP-2, Ser618 to Ala618) (human, UniProt O00187 16-686); experiment: titration ELISA on coated human MASP-2A ('Binding affinity'), IgG4 mutated format
T4 construct: the ELISA and Biacore methods say only 'MASP-2A', so a tag may have been present; also called huMASP2A; huMASP-2A
T4 sequence (O00187 16-686 S633A): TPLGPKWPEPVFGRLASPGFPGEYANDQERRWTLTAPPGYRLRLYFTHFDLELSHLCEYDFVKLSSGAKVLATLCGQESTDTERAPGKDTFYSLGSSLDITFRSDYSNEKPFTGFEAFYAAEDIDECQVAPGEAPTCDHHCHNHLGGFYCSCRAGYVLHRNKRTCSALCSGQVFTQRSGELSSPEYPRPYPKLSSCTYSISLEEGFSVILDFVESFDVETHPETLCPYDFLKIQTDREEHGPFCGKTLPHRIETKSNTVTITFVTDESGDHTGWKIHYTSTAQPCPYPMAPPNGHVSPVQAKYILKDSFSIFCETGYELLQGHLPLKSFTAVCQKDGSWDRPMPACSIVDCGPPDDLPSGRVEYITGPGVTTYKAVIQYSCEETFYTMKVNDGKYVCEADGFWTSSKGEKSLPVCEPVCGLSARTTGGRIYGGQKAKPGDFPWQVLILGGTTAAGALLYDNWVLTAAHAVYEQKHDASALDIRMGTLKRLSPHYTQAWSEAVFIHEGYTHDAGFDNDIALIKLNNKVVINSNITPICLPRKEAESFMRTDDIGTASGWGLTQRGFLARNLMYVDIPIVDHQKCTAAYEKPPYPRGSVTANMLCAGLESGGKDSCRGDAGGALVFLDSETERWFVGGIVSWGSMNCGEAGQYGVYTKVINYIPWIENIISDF
Method: (§1) The clones were then purified and re-tested in an ELISA and activity assay as follows. Human MASP-2A was coated at 3 μg/ml in PBS on a maxisorp plate, IgG (45 μg/ml) and Fab′2 (30 μg/ml) were diluted in PBS-Tween to a starting concentration of 300 nM, and further with 3-fold dilutions. IgGs were detected with HRP conjugated Goat α-Human IgG (Southern Biotech) and the F(ab′)2 were detected with HRP-conjugated Goat α-Human IgG H+L (Pierce 31412). The reaction was developed with TMB substrate and stopped with 2M H₂SO₄.

[6] = target: T4, human MASP-2A (catalytically inactive …); experiment: titration ELISA on coated human MASP-2A ('Binding affinity'), F(ab′)2
Method: as §1

human MASP-2 [7] = target: T1, human MASP-2; experiment: titration ELISA on MASP-2 (10 µg/ml)
[8] = target: T4, human MASP-2A (catalytically inactive …); experiment: ELISA, purified scFv titrated on physically adsorbed human MASP-2A
human MASP-2 [9] = target: T1, human MASP-2; experiment: cell-based or functional assay; remark: listed apart in the source
[10] = target: T4, human MASP-2A (catalytically inactive …); experiment: SPR (Biacore), scFv captured by anti-cMyc antibody, MASP-2A in solution
[11] = target: T4, human MASP-2A (catalytically inactive …); experiment: SPR (Biacore), MASP-2A amine coupled to CM5 chip, scFv monomer in solution
[12] = target: T2, African Green monkey MASP-2 (in African …); experiment: cell-based or functional assay; remark: listed apart in the source
human MASP-2 [13] = target: T1, human MASP-2; experiment: cell-based or functional assay; remark: listed apart in the source
[14] = target: T3, rat MASP-2 (in rat serum); experiment: cell-based or functional assay; remark: listed apart in the source
[15] = target: T2, African Green monkey MASP-2 (in African …); experiment: cell-based or functional assay; remark: listed apart in the source
human MASP-2 [16] = target: T1, human MASP-2; experiment: cell-based or functional assay; remark: listed apart in the source
human MASP-2 [17] = target: T1, human MASP-2; experiment: cell-based or functional assay; remark: listed apart in the source
human MASP-2 [18] = target: T1, human MASP-2; experiment: cell-based or functional assay; remark: listed apart in the source
human MASP-2 [19] = target: T1, human MASP-2; experiment: cell-based or functional assay; remark: listed apart in the source
human MASP-2 [20] = target: T1, human MASP-2; experiment: cell-based or functional assay; remark: listed apart in the source

T1 sequence (O00187 16-686): as the sequence (O00187 16-686 S633A) above, with A618S counted along it

B1: MoAb #1 (OMS641), 17N16m_d17N9 IgG2 (antibody)
heavy: QVQLQQSGPGLVKPSQTLSLTCAISGDSVSSTSAAWNWIRQSPSRGLEWLGRTYYRSKWYNDYAVSVKSRITINPDTSKNQFSLQLNSVTPEDTAVYYCARDPFGVPFDIWGQGTMVTVSSASTKGPSVFPLAPCSRSTSESTAALGCLVKDYFPEPVTVSWNSGALTSGVHTFPAVLQSSGLYSLSSVVTVPSSNFGTQTYTCNVDHKPSNTKVDKTVERKCCVECPPCPAPPVAGPSVFLFPPKPKDTLMISRTPEVTCVVVDVSHEDPEVQFNWYVDGVEVHNAKTKPREEQFNSTFRVVSVLTVVHQDWLNGKEYKCKVSNKGLPAPIEKTISKTKGQPREPQVYTLPPSREEMTKNQVSLTCLVKGFYPSDIAVEWESNGQPENNYKTTPPMLDSDGSFFLYSKLTVDKSRWQQGNVFSCSVMHEALHNHYTQKSLSLSPGK
light: SYELIQPPSVSVAPGQTATITCAGDNLGKKRVHWYQQRPGQAPVLVIYDDSDRPSGIPDRFSASNSGNTATLTITRGEAGDEADYYCQVWDIATDHVVFGGGTKLTVLGQPKAAPSVTLFPPSSEELQANKATLVCLISDFYPGAVTVAWKADSSPVKAGVETTTPSKQSNNKYAASSYLSLTPEQWKSHRSYSCQVTHEGSTVEKTVAPTECS
notes: also called MoAb#1 (IgG2); 17N16_17N9
Human MASP-2 [1]
  Human C3 Assay IC50, 90% human serum: 20 nM
  Human C4 assay IC50, 90% human serum: 30 nM
Human MASP-2 [2]
  Selectivity over C1s: > 5000 fold

B2: MoAb #2 (OMS642), 17N16m_d17N9 IgG4 (antibody)
heavy: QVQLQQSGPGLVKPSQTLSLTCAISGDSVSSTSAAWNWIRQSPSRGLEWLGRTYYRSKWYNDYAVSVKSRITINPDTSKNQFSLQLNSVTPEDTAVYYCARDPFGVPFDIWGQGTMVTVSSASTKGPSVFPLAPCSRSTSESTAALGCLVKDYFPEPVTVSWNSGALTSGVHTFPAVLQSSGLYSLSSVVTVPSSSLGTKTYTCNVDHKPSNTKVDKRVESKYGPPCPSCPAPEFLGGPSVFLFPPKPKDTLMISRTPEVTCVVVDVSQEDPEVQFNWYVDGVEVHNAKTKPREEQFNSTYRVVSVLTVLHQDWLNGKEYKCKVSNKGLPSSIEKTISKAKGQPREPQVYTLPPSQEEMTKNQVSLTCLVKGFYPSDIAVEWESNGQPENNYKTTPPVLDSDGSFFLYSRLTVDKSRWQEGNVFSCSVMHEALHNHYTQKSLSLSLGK
light: SYELIQPPSVSVAPGQTATITCAGDNLGKKRVHWYQQRPGQAPVLVIYDDSDRPSGIPDRFSASNSGNTATLTITRGEAGDEADYYCQVWDIATDHVVFGGGTKLTVLGQPKAAPSVTLFPPSSEELQANKATLVCLISDFYPGAVTVAWKADSSPVKAGVETTTPSKQSNNKYAASSYLSLTPEQWKSHRSYSCQVTHEGSTVEKTVAPTECS
notes: also called MoAb#2 (IgG4)
[3]
  African Green Monkey C3 assay IC50: 26 nM
Human MASP-2 [1]
  Human C3 Assay IC50, 90% human serum: 3 nM
  Human C4 assay IC50, 90% human serum: 30 nM
[4]
  Inhibition of Rat C3b IC50: 100 nM
Human MASP-2 [2]
  Selectivity over C1s: > 5000 fold

B3: MoAb #3 (OMS643), 17N16m_d17N9 IgG4 (mutant, S228P) (antibody)
heavy: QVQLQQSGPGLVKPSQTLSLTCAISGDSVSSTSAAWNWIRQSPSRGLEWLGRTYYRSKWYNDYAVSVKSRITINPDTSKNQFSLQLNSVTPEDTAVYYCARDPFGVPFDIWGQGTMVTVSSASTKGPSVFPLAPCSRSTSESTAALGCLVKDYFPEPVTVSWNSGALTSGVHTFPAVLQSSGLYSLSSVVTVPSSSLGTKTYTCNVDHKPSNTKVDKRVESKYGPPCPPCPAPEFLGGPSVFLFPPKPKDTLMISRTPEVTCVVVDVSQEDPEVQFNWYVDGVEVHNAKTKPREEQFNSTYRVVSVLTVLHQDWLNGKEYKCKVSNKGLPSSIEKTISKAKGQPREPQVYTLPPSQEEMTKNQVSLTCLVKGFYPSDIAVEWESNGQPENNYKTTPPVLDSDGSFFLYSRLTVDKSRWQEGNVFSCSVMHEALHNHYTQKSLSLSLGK
light: SYELIQPPSVSVAPGQTATITCAGDNLGKKRVHWYQQRPGQAPVLVIYDDSDRPSGIPDRFSASNSGNTATLTITRGEAGDEADYYCQVWDIATDHVVFGGGTKLTVLGQPKAAPSVTLFPPSSEELQANKATLVCLISDFYPGAVTVAWKADSSPVKAGVETTTPSKQSNNKYAASSYLSLTPEQWKSHRSYSCQVTHEGSTVEKTVAPTECS
notes: also called MoAb#3 (IgG4 mutant)
Human MASP-2 [1]
  Human C3 Assay IC50, 90% human serum: 12 nM
  Human C4 assay IC50, 90% human serum: 30 nM
[4]
  Inhibition of Rat C3b IC50: 200 nM
Human MASP-2 [2]
  Selectivity over C1s: > 5000 fold

B4: 17N16 mother clone, IgG4 hinge mutant (S228P) format (antibody, V domains shown)
VH: QVQLQQSGPGLVKPSQTLSLTCAISGDSVSSTSAAWNWIRQSPSRGLEWLGRTYYRSKWYNDYAVSVKSRITINPDTSKNQFSLQLNSVTPEDTAVYYCARDPFGVPFDIWGQGTMVTVSS
VL: SYVLTQPPSVSVAPGQTARITCGGNNIGSKNVHWYQQKPGQAPVLVVYDDSDRPSGIPERFSGSNSGNTATLTVSRVEAGDEADYYCQVWDTTTDHVVFGGGTKLTVL
notes: IgG4 S228P; also called 17N16 IgG4 mutated format
[5]
  Kd: 0.0206 nM

B5: 17N16 mother clone, F(ab′)2 format (Fab, V domains shown)
VH: QVQLQQSGPGLVKPSQTLSLTCAISGDSVSSTSAAWNWIRQSPSRGLEWLGRTYYRSKWYNDYAVSVKSRITINPDTSKNQFSLQLNSVTPEDTAVYYCARDPFGVPFDIWGQGTMVTVSS
VL: SYVLTQPPSVSVAPGQTARITCGGNNIGSKNVHWYQQKPGQAPVLVVYDDSDRPSGIPERFSGSNSGNTATLTVSRVEAGDEADYYCQVWDTTTDHVVFGGGTKLTVL
notes: also called 17N16 F(ab′)2
[6]
  Kd: 0.0959 nM

B6: scFv daughter clone 17D20m_d21N11 (scFv)
scFv: QVTLKESGPVLVKPTETLTLTCTVSGFSLSRGKMGVSWIRQPPGKALEWLAHIFSSDEKSYRTSLKSRLTISKDTSKNQVVLTMTNMDPVDTATYYCARIRAGGIDYWGQGTLVTVSSKLSGSASAPKLEEGEFSEARVQPVLTQPPSLSVSPGQTASITCSGEKLGDKYAYWYQQKPGQSPVLVMYQDKQRPSGIPERFSGSNSGNTATLTISGTQAMDEADYYCQAWDSSTAVFGGGTKLTVL
Human MASP-2 [7]
  Kd: 10 nM
[8]
  EC50 (read off the curve): ~3 nM
Human MASP-2 [9]
  1% human serum C3 assay IC50: 360 nM
  90% human serum C4 assay IC50: ~500 nM

B7: scFv mutagenesis clone #35 of 17D20 (scFv)
scFv: QVTLKESGPVLVKPTETLTLTCTVSGFSLSRGKMGVSWIRQPPGKALEWLAHIFSSDEKSYRTSLKSRLTISKDTSKNQVVLTMTNMDPVDTATYYCARIRRGGIDYWGQGTLVTVSSKLSGSASAPKLEEGEFSEARVQPVLTQPPSVSVSPGQTASITCSGDKLGDKFAYWYQQKPGHSPVLVIYQDNKRPSGIPGRFSGSNSGNTATLTISGTQAMDEADYYCQAWDSSTAVFGTGTKVTVLAAAGSEQKLISEEDLNSHHHHHH
notes: the mother scFv entry is used with this change; also called 17D20md#35 (monomer); 17D20md35
Human MASP-2 [7]
  Kd: 1.2 nM

B8: scFv mother clone 17D20 (scFv)
scFv: QVTLKESGPVLVKPTETLTLTCTVSGFSLSRGKMGVSWIRQPPGKALEWLAHIFSSDEKSYRTSLKSRLTISKDTSKNQVVLTMTNMDPVDTATYYCARIRAGGIDYWGQGTLVTVSSKLSGSASAPKLEEGEFSEARVQPVLTQPPSVSVSPGQTASITCSGDKLGDKFAYWYQQKPGHSPVLVIYQDNKRPSGIPGRFSGSNSGNTATLTISGTQAMDEADYYCQAWDSSTAVFGTGTKVTVLAAAGSEQKLISEEDLNSHHHHHH
notes: also called 17D20 (17P10); 17D20mc
[10]
  Kd: 0.76 nM
[11]
  Kd: 11.3 nM
[12]
  C3 Assay IC50, non-human primate serum Exp #1: 94 nM
  C3 Assay IC50, non-human primate serum Exp #2: 74 nM
  C3 Assay IC50, non-human primate serum mean: 84 nM
Human MASP-2 [13]
  C3 Assay IC50 in dilute serum (1%), human serum Exp #1: 24 nM
  C3 Assay IC50 in dilute serum (1%), human serum Exp #2: 24 nM
  C3 Assay IC50 in dilute serum (1%), human serum Exp #3: 40 nM
  C3 Assay IC50 in dilute serum (1%), human serum mean: 29 nM
[14]
  Functional IC50, C3b deposition, rat serum Exp #1: 434 nM
[15]
  Functional IC50, C3b deposition, non-human primate serum Exp #1: 94.8 nM
  Functional IC50, C3b deposition, non-human primate serum Exp #2: 71.8 nM
Human MASP-2 [16]
  Functional IC50, C3b deposition, human serum Exp #1: 157 nM
  Functional IC50, C3b deposition, human serum Exp #2: 39.9 nM
  Functional IC50, C3b deposition, human serum Exp #3: 24.1 nM
  Functional IC50, C3b deposition, human serum Exp #4: 23.7 nM
Human MASP-2 [7]
  Kd: 1.9 nM
Human MASP-2 [17]
  Inhibitory activity in Human Serum IC50 (C3b deposition, 0.5% human serum): 157 nM
Human MASP-2 [18]
  C3 convertase assay using 1% human serum, IC50 (first experiment): 98.3 nM
  C3 convertase assay using 1% human serum, IC50 (second experiment): 151 nM
[8]
  EC50 (read off the curve): ~2 nM
Human MASP-2 [9]
  1% human serum C3 assay IC50: 38 nM

B9: scFv mother clone 17L20 (scFv)
scFv: EVQLQQSGPGLVKPSQTLSLTCAISGDSVSSKRAAWDWIRQSPSRGLEWLGRTYYRSKWFNDYAISVKSRITINADTSRNQFSLQLNSVTPEDTAVYYCVKSNSGTGAFDSWGQGTLVTVSSKLSGSASAPKLEEGEFSEARVQPGLTQPPSVSVSPGQTARITCSRDKLGDKYVSWYQQKPGQSPVVVMYKDNKRPSGIPERFSGSNSGNTATLTISGTQAMDEADYYCQAWDSSTAGVFGGGTKLTVLAAAGSEQKLISEEDLNSHHHHHH
[14]
  Functional IC50, C3b deposition, rat serum Exp #1: 41 nM
[15]
  Functional IC50, C3b deposition, non-human primate serum Exp #2: 71.7 nM
Human MASP-2 [16]
  Functional IC50, C3b deposition, human serum Exp #2: 104 nM
  Functional IC50, C3b deposition, human serum Exp #3: 308 nM
  Functional IC50, C3b deposition, human serum Exp #4: 199 nM

B10: 17D20 mother clone, IgG4 hinge mutant (S228P) format (antibody, V domains shown)
VH: QVTLKESGPVLVKPTETLTLTCTVSGFSLSRGKMGVSWIRQPPGKALEWLAHIFSSDEKSYRTSLKSRLTISKDTSKNQVVLTMTNMDPVDTATYYCARIRAGGIDYWGQGTLVTVSS
VL: QPVLTQPPSVSVSPGQTASITCSGDKLGDKFAYWYQQKPGHSPVLVIYQDNKRPSGIPGRFSGSNSGNTATLTISGTQAMDEADYYCQAWDSSTAVFGTGTKVTVLA
notes: IgG4 S228P; also called 17D20 IgG4 mutated format; 17D20 IgG4 S228P
Human MASP-2 [19]
  C3b deposition assay in 1% human serum, IC50: 11 nM and 27 nM
Human MASP-2 [20]
  C4b deposition in 90% human serum, IC50 relative to the C3b deposition assay: ~3 fold
[5]
  Kd: 0.0284 nM
